Data published in the supplement of paper PMC10724198.
± gives the standard deviation of the averaged measurements.

Tested on: Saccharomyces cerevisiae
Experiment: protein stability index of tFT-peptide fusion (C-terminal peptide) (PSI (0-1 scale)); higher = more stable (slower turnover)
Details: temperature: 30 C
Protocol: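 MPS profiling in S. cerevisiae of the yeast C-terminome library: the last 12 aa of each annotated ORF are fused to the C-terminus of a sfGFP-mCherry timer, after a GGGS linker. Cells are FACS-sorted into 8 mCherry/sfGFP bins and deep-sequenced. PSI runs from 0 (unstable) to 1 (stable); wild type and das1Δ backgrounds, two technical replicates each.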

[1] = genetic background: das1 deletion

Sequence	protein stability index [1]	protein stability index (genetic background: wild type)
SKIPSSLYIYHM [YGL042C C-terminal 12 aa]	0.7073 ± 0.0067	0.619 ± 0.04
IWVVDSLGSLVG [YPL142C C-terminal 12 aa]	0.6847 ± 0.00084	0.699 ± 0.037
QFFFTSRQKNYV [ERP4 C-terminal 12 aa]	0.707 ± 0.014	0.654 ± 0.01
PPSPQEELLIEL [VPS27 C-terminal 12 aa]	0.721 ± 0.017	0.7051 ± 0.0024
VHKDLDIKTVTL [PRO2 C-terminal 12 aa]	0.691 ± 0.013	0.671 ± 0.0073
TDGSKEDVDALP [ZNF1 C-terminal 12 aa]	0.688 ± 0.02	0.716 ± 0.039
YLRRFFEVTSLV [EMP24 C-terminal 12 aa]	0.552 ± 0.011	0.338 ± 0.03
ICKALVKQDLGL [LAP2 C-terminal 12 aa]	0.6972 ± 0.002	0.657 ± 0.035
FTFGTPIFLQLL [YFR010W-A C-terminal 12 aa]	0.653 ± 0.025	0.579 ± 0.1
WLTTKMSSSEAS [UIP4 C-terminal 12 aa]	0.708 ± 0.014	0.741 ± 0.025
PSYPSEKISYSK [ADO1 C-terminal 12 aa]	0.7017 ± 0.0027	0.726 ± 0.065
ITLESGSYKFQD [SRP40 C-terminal 12 aa]	0.695 ± 0.025	0.639 ± 0.0026
LFTCTDPNDTIE [MMS4 C-terminal 12 aa]	0.721 ± 0.027	0.72 ± 0.03
LKHFIKVFSSKL [ARR1 C-terminal 12 aa]	0.825 ± 0.013	0.89 ± 0.024
MAQNYVIDRMGL [MTC1 C-terminal 12 aa]	0.707 ± 0.027	0.68 ± 0.037
NTFTEHNSNIYY [SPT10 C-terminal 12 aa]	0.704 ± 0.021	0.706 ± 0.029
IKIRIYSPRSIS [YDL240C-A C-terminal 12 aa]	0.715 ± 0.017	0.519 ± 0.021
FTFIIIQLFPAL [USE1 C-terminal 12 aa]	0.351 ± 0.016	0.385 ± 0.015
ELKKIILESSMK [EXO5 C-terminal 12 aa]	0.698 ± 0.059	0.68 ± 0.011
PSNASNTTTRRP [YKR045C C-terminal 12 aa]	0.703 ± 0.032	0.6901 ± 0.0053
RRDYWLSKGQAL [TRF5 C-terminal 12 aa]	0.7173 ± 0.0032	0.725 ± 0.032

Sequence	protein stability index [1]	protein stability index (genetic background: wild type)
LCPVFFTWTNLR [YSR3 C-terminal 12 aa]	0.656 ± 0.008	0.656 ± 0.034
VTQILYTPIESS [SIP2 C-terminal 12 aa]	0.679 ± 0.028	0.696 ± 0.03
NVIRVWQVMTAN [ASC1 C-terminal 12 aa]	0.576 ± 0.0091	0.272 ± 0.016
EDNDYELIFMNV [PML1 C-terminal 12 aa]	0.7194 ± 0.0068	0.712 ± 0.019
ANTDKNNNPPGN [SNG1 C-terminal 12 aa]	0.698 ± 0.016	0.751 ± 0.07
DCLEGMLELEKL [DSS1 C-terminal 12 aa]	0.698 ± 0.025	0.677 ± 0.041
NMGGWVLGGNAR [SND1 C-terminal 12 aa]	0.721 ± 0.023	0.6926 ± 0.0057
LIAEILLARNLI [HOM2 C-terminal 12 aa]	0.71 ± 0.0084	0.662 ± 0.007
FVNNKGNFKDLK [ARG3 C-terminal 12 aa]	0.722 ± 0.025	0.686 ± 0.025
YDKESDDRKCCL [CTR3 C-terminal 12 aa]	0.681 ± 0.0083	0.675 ± 0.034
YTVLEDDANDEK [HAP1 C-terminal 12 aa]	0.673 ± 0.017	0.7 ± 0.027
RQFKEILTVKEE [RRP40 C-terminal 12 aa]	0.6732 ± 0.0037	0.687 ± 0.013
RKFVFNPPKPRK [CYT1 C-terminal 12 aa]	0.691 ± 0.025	0.694 ± 0.056
RIELSKYYNTNL [YPD1 C-terminal 12 aa]	0.6986 ± 0.0043	0.716 ± 0.059
TTEKKKKKCVLL [RHO1 C-terminal 12 aa]	0.684 ± 0.0099	0.6878 ± 0.0017
EKPKKKEVEKTA [NOG2 C-terminal 12 aa]	0.684 ± 0.012	0.688 ± 0.018
AQGEKDAAATAN [TOM22 C-terminal 12 aa]	0.677 ± 0.019	0.6591 ± 0.0032
SCRTTPQVRARA [YLR279W C-terminal 12 aa]	0.6944 ± 0.0046	0.6946 ± 0.0043
FSSEYLLVHVQQ [YLR458W C-terminal 12 aa]	0.662 ± 0.011	0.654 ± 0.036
GSEIDFTDYLGP [PUT3 C-terminal 12 aa]	0.729 ± 0.012	0.716 ± 0.017
QMSAMTEKFGKL [YKL068W-A C-terminal 12 aa]	0.726 ± 0.0095	0.693 ± 0.015

Sequence	protein stability index [1]	protein stability index (genetic background: wild type)
KKNGYIYFYTRC [UBP14 C-terminal 12 aa]	0.69 ± 0.0087	0.6625 ± 0.0026
KVYDELKKQGLV [PRP9 C-terminal 12 aa]	0.693 ± 0.017	0.676 ± 0.0062
SEIVDISQLPPG [ILV6 C-terminal 12 aa]	0.6812 ± 0.0022	0.7033 ± 0.0062
GWPLKDGNKKRK [OTO1 C-terminal 12 aa]	0.682 ± 0.025	0.706 ± 0.065
NTNELTDEHRWI [PHO2 C-terminal 12 aa]	0.6977 ± 0.0017	0.668 ± 0.017
EDKDSESFSEVC [YCG1 C-terminal 12 aa]	0.702 ± 0.016	0.705 ± 0.011
AKKTNKLALTHV [SEC26 C-terminal 12 aa]	0.7167 ± 0.0064	0.718 ± 0.038
VTGFKDEVLETV [RPS1A C-terminal 12 aa]	0.7042 ± 0.001	0.682 ± 0.032
ELASYILKELNL [KIN2 C-terminal 12 aa]	0.731 ± 0.028	0.702 ± 0.064
IRLLTYLLRKIE [YLR230W C-terminal 12 aa]	0.654 ± 0.033	0.351 ± 0.023
TTIKNIDILNRT [SMC4 C-terminal 12 aa]	0.717 ± 0.024	0.694 ± 0.048
EDDEDGSGVEYD [RTT106 C-terminal 12 aa]	0.694 ± 0.009	0.7 ± 0.062
FFFSNSFLPASR [YJL127W-A C-terminal 12 aa]	0.7317 ± 0.0022	0.788 ± 0.11
ELLYIIDHLSEL [BTS1 C-terminal 12 aa]	0.693 ± 0.023	0.67 ± 0.015
FVKPGEICLREQ [RDH54 C-terminal 12 aa]	0.712 ± 0.039	0.701 ± 0.014
VEMAVKFGKNAF [RIB4 C-terminal 12 aa]	0.696 ± 0.012	0.689 ± 0.059
KIPKTYSELSCL [DUN1 C-terminal 12 aa]	0.693 ± 0.042	0.669 ± 0.037
NSISPPPRKGFI [YGL006W-A C-terminal 12 aa]	0.7177 ± 0.005	0.714 ± 0.055
RKEDDKRDTQEK [SOF1 C-terminal 12 aa]	0.713 ± 0.024	0.67 ± 0.019
YVFVFIIDFIIR [FUN26 C-terminal 12 aa]	0.213 ± 0.006	0.245 ± 0.0059
AMSARKLSAARK [PCH2 C-terminal 12 aa]	0.677 ± 0.015	0.666 ± 0.025

Sequence	protein stability index [1]	protein stability index (genetic background: wild type)
SSSSLYTESPIR [IGO1 C-terminal 12 aa]	0.7011 ± 0.0054	0.717 ± 0.066
VLSNLAVKALQN [PRM3 C-terminal 12 aa]	0.68 ± 0.018	0.646 ± 0.023
STTMNFNYQTKV [SDD1 C-terminal 12 aa]	0.696 ± 0.011	0.363 ± 0.0082
DMMMLFGAEGDE [TAF7 C-terminal 12 aa]	0.72102 ± 0.00011	0.707 ± 0.027
RYKILDLIISKL [UTP6 C-terminal 12 aa]	0.789 ± 0.042	0.683 ± 0.04
LLSVDGWRTDQL [QRI7 C-terminal 12 aa]	0.721 ± 0.014	0.758 ± 0.031
KRDKLKKNCVIM [YGL082W C-terminal 12 aa]	0.74 ± 0.016	0.698 ± 0.034
PLTNNIRPISIM [YJR115W C-terminal 12 aa]	0.6893 ± 0.0007	0.6548 ± 0.005
NAPRFGVEYQMT [PHO89 C-terminal 12 aa]	0.72259 ± 0.00055	0.67 ± 0.017
NRRNNGYHPYNR [HRP1 C-terminal 12 aa]	0.688 ± 0.019	0.6645 ± 0.0011
DLEDEIEMEDVV [TFG2 C-terminal 12 aa]	0.699 ± 0.027	0.711 ± 0.046
GYYQRRNKRKRA [UTP20 C-terminal 12 aa]	0.749 ± 0.012	0.69 ± 0.046
FSFTEEPRIVMI [DCD1 C-terminal 12 aa]	0.689 ± 0.02	0.699 ± 0.03
IEALYKLVEEKM [NQM1 C-terminal 12 aa]	0.701 ± 0.017	0.6797 ± 0.0027
VTNPKGRLALEA [RPL32 C-terminal 12 aa]	0.6613 ± 0.0025	0.686 ± 0.026
IHENEESNENEG [RQC1 C-terminal 12 aa]	0.702 ± 0.0099	0.663 ± 0.011
KSEIDTLKQDQK [TYE7 C-terminal 12 aa]	0.656 ± 0.011	0.6659 ± 0.0018
AKFDGHAKTCHI [YBR051W C-terminal 12 aa]	0.717 ± 0.021	0.70733 ± 5e-06
GVRRSVRLNNRV [MCM4 C-terminal 12 aa]	0.699 ± 0.019	0.681 ± 0.015
